{"source": "patent US20050058639A1", "about": "(AstraZeneca / MedImmune, published 2005)", "key": {"recombinant human MCP-3 [1]": {"target": "T1, recombinant human MCP-3 (human, UniProt P80098 24-99)", "T1 construct": "also called rhMCP-3", "T1 sequence (P80098 24-99 limits assumed)": "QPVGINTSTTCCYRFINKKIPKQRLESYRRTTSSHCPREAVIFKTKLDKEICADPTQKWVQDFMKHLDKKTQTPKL", "assay": "Biacore 2000, mAb immobilized, antigen injected", "experimental": "(§1) The interaction analysis was performed at 25° C. using two CM5 chips docked in Biacore 2000 optical biosensors. Individual flow cells on each chip were activated with a 7-minute injection of NHS/EDC, carbohydrazide was coupled through the NHS ester using a 7-minute injection, and the residual activated groups were blocked with a 7-minute injection of ethanolamine. […] The oxidized antibody was desalted into 10 mM sodium acetate, pH 5.0, to couple the antibody to the carbohydrazide-modified surface. […] The mAb surfaces were stabilized by reducing the hydrazone bond with 0.1 M sodium cyanoborohydride. The antigen/antibody interaction was tested by injecting duplicate antigen samples diluted in running buffer (10 mM HEPES, 150 mM NaCl, 0.005% surfactant, 200 μg/mL BSA, pH 7.4), in a 300-fold concentration range. The surfaces were regenerated with a 12-second pulse of 15 mM H₃PO₄."}, "recombinant human MCP-4 [2]": {"target": "T2, recombinant human MCP-4 (human, UniProt Q99616 24-98, limits assumed)", "T2 construct": "also called rhMCP-4", "T2 sequence (Q99616 24-98 limits assumed)": "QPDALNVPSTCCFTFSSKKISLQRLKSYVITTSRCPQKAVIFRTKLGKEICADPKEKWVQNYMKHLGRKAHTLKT", "assay": "Biacore 2000, mAb immobilized, antigen injected", "experimental": "as §1"}, "recombinant human MCP-2 [3]": {"target": "T3, recombinant human MCP-2 (human, UniProt P80075 24-99)", "T3 construct": "also called rhMCP-2", "T3 sequence (looked up)": "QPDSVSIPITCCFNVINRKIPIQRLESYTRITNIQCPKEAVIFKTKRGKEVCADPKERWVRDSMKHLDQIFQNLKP", "assay": "Biacore 2000, mAb immobilized, antigen injected", "experimental": "as §1"}, "recombinant human MCP-3 [4]": {"target": "T1, recombinant human MCP-3", "assay": "cell-based or functional assay"}, "[5]": {"target": "T4, human monocyte chemo-attractant protein-1 (MCP-1) (human, UniProt P13500 24-99)", "T4 construct": "76-residue recombinant protein from E. coli, bought (PeproTech); also called hMCP-1(MCAF); human MCP-1", "T4 sequence (P13500 24-99)": "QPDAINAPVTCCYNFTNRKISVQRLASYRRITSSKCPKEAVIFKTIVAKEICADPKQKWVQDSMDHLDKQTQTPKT", "assay": "ELISA, hybridoma supernatant on coated MCP-1; ELISA, hybridoma supernatant on plate-coated non-reduced MCP-1 (2 ug/mL)", "experimental": "Selection of candidate antibodies for ELISA. After 14 days of culture, hybridoma supernatants were screened for MCP-1-specific monoclonal antibodies. The ELISA plates (Fisher, Cat. No. 12-565-136) were coated with 50 μl/well of MCP-1 (2 μg/mL) in Coating Buffer (0.1 M Carbonate Buffer, pH 9.6, NaHCO₃8.4 g/L), then incubated at 4° C. overnight. After incubation, the plates were washed with Washing Buffer (0.05% Tween 20 in PBS) three times. 200 μl/well Blocking Buffer (0.5% BSA, 0.1% Tween 20, 0.01% Thimerosal in 1× PBS) were added and the plates incubated at room temperature for 1 hour. After incubation, the plates were washed with Washing Buffer three times. 50 μL/well of hybridoma supernatants, and positive and negative controls were added and the plates incubated at room temperature for 2 hours.\nThe positive control used throughout was XMG2 MCP-1 Group 1, footpad N160-7 and the negative control was XMG2 KLH Group 1, footpad L627-6. After incubation, the plates were washed three times with Washing Buffer. […] In the secondary screen, three sets of samples (positives in first screening) were screened, one set for hIgG detection, one set for hKappa detection, and one set for hlambda detection. After incubation, the plates were washed three times with Washing Buffer. 100 μL/well of TMB (BioFX Lab. Cat. #TMSK-0100-01) were added and the plates allowed to develop for about 10 minutes (until negative control wells barely started to show color), then 50 μL/well stop solution (TMB Stop Solution (BioFX Lab. Cat. #STPR-0100-01) were added and the plates read on an ELISA plate reader at wavelength 450 nm. The OD readings from the positive wells are presented in Table 9."}, "[6]": {"target": "T4, human monocyte chemo-attractant …", "assay": "cell-based or functional assay"}, "recombinant human MCP-3 [7]": {"target": "T1, recombinant human MCP-3", "assay": "ELISA, coated antigen", "outline": "(§2)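 Plates coated overnight at 4° C with MCP-1, MCP-2, MCP-3, MCP-4, RANTES, GRO-alpha, MIP-1 alpha, eotaxin, rat MCP-1 or mouse JE (2 μg/ml, carbonate buffer pH 9.6), blocked with BSA. Hybridoma supernatants bound 2 hours at room temperature; TMB colour developed about 10 minutes.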"}, "rat MCP-1": {"target": "rat MCP-1 (rat, UniProt P14844 24-148)", "sequence (P14844 24-148 limits assumed)": "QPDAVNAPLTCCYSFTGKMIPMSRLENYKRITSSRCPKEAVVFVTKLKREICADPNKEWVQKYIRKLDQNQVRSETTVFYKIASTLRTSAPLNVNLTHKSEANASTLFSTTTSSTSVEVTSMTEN", "assay": "ELISA, coated antigen", "outline": "as §2"}, "human GRO/MGSA": {"target": "T5, human GRO/MGSA (human, UniProt P09341 35-107)", "T5 construct": "also called hGRO/MGSA; GRO-alpha", "T5 sequence (looked up)": "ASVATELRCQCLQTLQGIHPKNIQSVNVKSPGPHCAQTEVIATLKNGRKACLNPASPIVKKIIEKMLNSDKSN", "assay": "ELISA, coated antigen", "outline": "as §2"}, "human eotaxin": {"target": "T6, human eotaxin (human, UniProt P51671 24-97)", "T6 construct": "also called hEotaxin", "T6 sequence (P51671 24-97 limits assumed)": "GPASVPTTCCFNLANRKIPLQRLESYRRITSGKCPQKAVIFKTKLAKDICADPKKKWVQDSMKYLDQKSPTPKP", "assay": "ELISA, coated antigen", "outline": "as §2"}, "recombinant human MCP-4 [8]": {"target": "T2, recombinant human MCP-4", "assay": "ELISA, coated antigen", "outline": "as §2"}, "human RANTES": {"target": "T7, human RANTES (human, UniProt P13501 24-91)", "T7 construct": "also called hRANTES", "T7 sequence (looked up)": "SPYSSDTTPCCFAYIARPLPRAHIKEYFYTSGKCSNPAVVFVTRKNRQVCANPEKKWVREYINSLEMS", "assay": "ELISA, coated antigen", "outline": "as §2"}, "[9]": {"target": "T8, recombinant mouse JE/MCP-1 (mouse, UniProt P10148 24-148)", "T8 construct": "also called rmJE/MCP-1", "T8 sequence (P10148 24-148 limits assumed)": "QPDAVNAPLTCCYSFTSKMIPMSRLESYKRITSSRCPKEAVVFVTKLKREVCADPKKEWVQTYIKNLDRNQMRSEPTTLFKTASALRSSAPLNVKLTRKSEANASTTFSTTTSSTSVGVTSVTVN", "assay": "ELISA, coated antigen", "outline": "as §2"}, "human MIP-1-alpha": {"target": "T9, human MIP-1-alpha (human, UniProt P10147 24-92, limits assumed)", "T9 construct": "also called hMIP-1-alpha", "T9 sequence (looked up)": "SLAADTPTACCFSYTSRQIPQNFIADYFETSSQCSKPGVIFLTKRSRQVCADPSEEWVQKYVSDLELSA", "assay": "ELISA, coated antigen", "outline": "as §2"}, "recombinant human MCP-2 [10]": {"target": "T3, recombinant human MCP-2", "assay": "ELISA, coated antigen", "outline": "as §2"}, "[11]": {"target": "T4, human monocyte chemo-attractant …", "assay": "ELISA, coated antigen; ELISA, purified clone 1:50 on coated hMCP-1 (2 ug/mL), cross-reactivity panel", "experimental": "Determining cross-reactivity of anti-MCP-1 antibodies with other chemokines. ELISA plates (Fisher Cat. No. 12-565-136) were coated with 50 μl/well of MCP-1, MCP-2, MCP-3, MCP-4, RANTES, GRO-alpha, MIP-1 alpha, eotaxin, rat MCP-1 and mouse JE (2 μg/ml) in coating buffer (0.1 M carbonate buffer, pH 9.6, NaHCO₃ 8.4 g/L, then incubated at 4° C. overnight. After incubation, the plates were washed with washing buffer (0.05% Tween 20 in PBS) three times. 200 μL/well blocking buffer (0.5% BSA, 0.1% Tween 20, 0.01% Thimerosal in 1×PBS) were added and the plates incubated at room temperature for 1 hour. After incubation, the plates were washed with washing buffer three times. 50 μL/well of hybridoma supernatants, and positive and negative controls (positive control was anti-MCP-1 antibody purchased from R&D Sciences, and negative control was an antibody to Keyhole Limpet Hemocyanin produced at Abgenix) were added and the plates incubated at room temperature for 2 hours. After incubation, the plates were washed three times with washing buffer. […] After incubation, the plates were washed three times with washing buffer and 100 μL/well of TMB (BioFX Lab. Cat. #TMSK-0 100-01) was added and the plates allowed to develop for about 10 minutes."}, "[12]": {"target": "T4, human monocyte chemo-attractant …", "assay": "Biacore 2000, mAb immobilized, antigen injected; Biacore, 25 C, native MCP-1 injected over immobilized mAb 3.11.2 (250 RU)", "experimental": "as §1"}}}
{"binder": "anti-MCP-1 mAb 3.11.1 (antibody, human IgG4, kappa, V domains shown) VH: QVQLQESGPGLVKPSQTLSLTCTVSGGSISSGGNYWNWIRQHPGKGLEWIGYIYYSGNTYYNPSLKSRITISIDTSKNQFSLTLSSVTAADTAVYYCARDGGDDAFDIWGQGTMVTVSS VL: DIQMTQSPSSLSASVGDRVTITCQASQDISNYLNWYQQKPGKAPKLLIYDASNLETGVPSRFSGSGSGTDFTFTINSLQPEDIATYYCQEYNNLPYSFGQGTKLEIKR", "values": [{"measurement": "Kd", "setting": "recombinant human MCP-3 [1]", "result": 0.049, "unit": "nM"}, {"measurement": "koff", "setting": "recombinant human MCP-3 [1]", "result": 0.0074, "unit": "s⁻¹"}, {"measurement": "kon", "setting": "recombinant human MCP-3 [1]", "result": "1.5e+08", "unit": "M⁻¹ s⁻¹"}, {"measurement": "Kd", "setting": "recombinant human MCP-4 [2]", "result": 0.0037, "unit": "nM"}, {"measurement": "koff", "setting": "recombinant human MCP-4 [2]", "result": 0.00055, "unit": "s⁻¹"}, {"measurement": "kon", "setting": "recombinant human MCP-4 [2]", "result": "1.5e+08", "unit": "M⁻¹ s⁻¹"}, {"measurement": "Kd", "setting": "recombinant human MCP-2 [3]", "result": 0.046, "unit": "nM"}, {"measurement": "koff", "setting": "recombinant human MCP-2 [3]", "result": 0.012, "unit": "s⁻¹"}, {"measurement": "kon", "setting": "recombinant human MCP-2 [3]", "result": "2.6e+08", "unit": "M⁻¹ s⁻¹"}, {"measurement": "IC50, inhibition of MCP-3-induced migration of THP-1 cells (chemotaxis assay, MCP3 at 0.166 nM)", "setting": "recombinant human MCP-3 [4]", "result": 0.139, "unit": "nM"}, {"measurement": "ELISA OD-MCP-1", "setting": "[5]", "result": 4, "unit": "OD450"}, {"measurement": "IC50 Ca++ Flux", "setting": "[6]", "result": 0.092, "unit": "µg/mL"}, {"measurement": "IC50 Chemotaxis", "setting": "[6]", "result": 0.33, "unit": "µg/mL"}, {"measurement": "ELISA OD", "setting": "recombinant human MCP-3 [7]", "result": 1.32, "unit": "OD450"}, {"measurement": "ELISA OD", "setting": "rat MCP-1", "result": 0.057, "unit": "OD450"}, {"measurement": "ELISA OD", "setting": "human GRO/MGSA", "result": 0.054, "unit": "OD450"}, {"measurement": "ELISA OD", "setting": "human eotaxin", "result": 0.339, "unit": "OD450"}, {"measurement": "ELISA OD", "setting": "recombinant human MCP-4 [8]", "result": 0.981, "unit": "OD450"}, {"measurement": "ELISA OD", "setting": "human RANTES", "result": 0.064, "unit": "OD450"}, {"measurement": "ELISA OD", "setting": "[9]", "result": 0.063, "unit": "OD450"}, {"measurement": "ELISA OD", "setting": "human MIP-1-alpha", "result": 0.053, "unit": "OD450"}, {"measurement": "ELISA OD", "setting": "recombinant human MCP-2 [10]", "result": 0.336, "unit": "OD450"}, {"measurement": "ELISA OD", "setting": "[11]", "result": 0.803, "unit": "OD450"}, {"measurement": "Kd", "setting": "[12]", "result": 0.0033, "unit": "nM"}, {"measurement": "koff", "setting": "[12]", "result": 0.001, "unit": "s⁻¹"}, {"measurement": "kon", "setting": "[12]", "result": "3e+08", "unit": "M⁻¹ s⁻¹"}]}
